The values below come from article PMC2212392.

Like-named read-outs stand apart in the source and are kept apart here. A value given as a limit tells only on which side of the number the result lay.

Holding throughout (experiment): SPR
The target of test [1] is soluble mCD2 comprising the extracellular region of mCD2 (mouse) (UniProt P08920).
Test [2] shares this target. This is another data set of the same source.
Test [3] has the same target. The source holds these as a separate data set.

Chain of UniProt P08920 (P08920 23-203): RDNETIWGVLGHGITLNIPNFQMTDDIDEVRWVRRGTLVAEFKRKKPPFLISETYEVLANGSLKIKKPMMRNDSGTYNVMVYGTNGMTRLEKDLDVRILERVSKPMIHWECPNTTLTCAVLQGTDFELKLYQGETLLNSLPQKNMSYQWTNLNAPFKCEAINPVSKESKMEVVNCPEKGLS

On to “soluble mCD48 (purified monomeric mouse CD48 with a COOH-terminal His-tag) (from UniProt P18181 23-217) (domain or fragment)”, for which the figures for the koff in test [1] and in test [3] were 22 s⁻¹ and more than 20 s⁻¹, respectively. For the same substance, the Kd in test [2] was 49 µM; in test [3], 90 µM.
